According to patent US11306156:
Blank lines part the entries; values can stand above or below the substance they belong to.

What was measured:
[1] = molecular target: D3H44 light chain Q124R_Q160K_T178R, N-terminal HA or FLAG tag; assay: LCCA, SPR of light chain tags, L1:L2 DNA 1:3 norm. to 1:1; other light chain m15
[2] = molecular target: D3H44 light chain Q124E_V133E, N-terminal HA or FLAG tag; assay: LCCA, SPR of light chain tags, L1:L2 DNA 1:3 norm. to 1:1; other light chain m24
[3] = molecular target: D3H44 light chain Q124E_V133D, N-terminal HA or FLAG tag; assay: as above
[4] = molecular target: D3H44 light chain Q124R, N-terminal HA or FLAG tag; assay: LCCA, SPR of light chain tags, L1:L2 DNA 1:9 norm. to 1:1; other light chain m28
[5] = molecular target: D3H44 light chain Q124R_Q160K_T178R, N-terminal HA or FLAG tag; assay: LCCA, SPR of light chain tags, L1:L2 DNA 1:3 norm. to 1:1; other light chain m16
[6] = molecular target: D3H44 light chain Q124R, N-terminal HA or FLAG tag; assay: LCCA, SPR of light chain tags, L1:L2 DNA 1:3 norm. to 1:1; other light chain m18
[7] = molecular target: D3H44 light chain Q124R_Q160K_T178R, N-terminal HA or FLAG tag; assay: LCCA, SPR of light chain tags, L1:L2 DNA 1:9 norm. to 1:1; other light chain m27
[8] = molecular target: D3H44 light chain Q124E_S131T_T178Y_T180E, N-terminal HA or FLAG tag; assay: LCCA, SPR of light chain tags, L1:L2 DNA 1:3 norm. to 1:1; other light chain m17
[9] = molecular target: D3H44 light chain Q124E_S176L_T180E, N-terminal HA or FLAG tag; assay: as above
[10] = molecular target: D3H44 light chain Q124E_V133D_S176L, N-terminal HA or FLAG tag; assay: as above
[11] = molecular target: D3H44 light chain Q124R, N-terminal HA or FLAG tag; assay: LCCA, SPR of light chain tags, L1:L2 DNA 1:3 norm. to 1:1; other light chain m28
[12] = molecular target: D3H44 light chain Q124E_V133D, N-terminal HA or FLAG tag; assay: LCCA, SPR of light chain tags, L1:L2 DNA 1:9 norm. to 1:1; other light chain m24
[13] = molecular target: D3H44 light chain Q124R_Q160K_T178R, N-terminal HA or FLAG tag; assay: LCCA, SPR of light chain tags, L1:L2 DNA 1:3 norm. to 1:1; other light chain m27
[14] = molecular target: D3H44 light chain Q124E_V133D_S176L, N-terminal HA or FLAG tag; assay: LCCA, SPR of light chain tags, L1:L2 DNA 1:9 norm. to 1:1; other light chain m17
[15] = molecular target: D3H44 light chain Q124R_T178R, N-terminal HA or FLAG tag; assay: LCCA, SPR of light chain tags, L1:L2 DNA 1:3 norm. to 1:1; other light chain m15
[16] = molecular target: D3H44 light chain Q124E_S131T_T178F_T180E, N-terminal HA or FLAG tag; assay: LCCA, SPR of light chain tags, L1:L2 DNA 1:3 norm. to 1:1; other light chain m14
[17] = molecular target: D3H44 light chain Q124E_S131T_T178Y_T180E, N-terminal HA or FLAG tag; assay: as above
[18] = molecular target: D3H44 light chain Q124R_Q160K_T178R, N-terminal HA or FLAG tag; assay: LCCA, SPR of light chain tags, L1:L2 DNA 1:3 norm. to 1:1; other light chain m23
[19] = molecular target: D3H44 light chain Q124R_T178R, N-terminal HA or FLAG tag; assay: LCCA, SPR of light chain tags, L1:L2 DNA 1:3 norm. to 1:1; other light chain m20
[20] = molecular target: D3H44 light chain Q124R_Q160K_T178R, N-terminal HA or FLAG tag; assay: LCCA, SPR of light chain tags, L1:L2 DNA 1:3 norm. to 1:1; other light chain m21
[21] = molecular target: D3H44 light chain Q124E_Q160E_T178E, N-terminal HA or FLAG tag; assay: LCCA, SPR of light chain tags, L1:L2 DNA 1:3 norm. to 1:1; other light chain m17
[22] = molecular target: D3H44 light chain Q124E_T178E_T180E, N-terminal HA or FLAG tag; assay: as above
[23] = molecular target: tissue factor (TF) antigen (UniProt P13726); assay: SPR, Fab captured on anti-penta His, TF injected; * estimated value taken from a Fab differing only in the L chain tag
[24] = molecular target: tissue factor (TF) antigen (UniProt P13726); assay: SPR; Fab captured by anti-His, TF as analyte; LCCA set 9060
[25] = molecular target: tissue factor (TF) antigen (UniProt P13726); assay: SPR; Fab captured by anti-His, TF as analyte; LCCA set 10549
[26] = molecular target: tissue factor (TF) antigen (UniProt P13726); assay: SPR; Fab captured by anti-His, TF as analyte; LCCA set 9746
[27] = molecular target: tissue factor (TF) antigen (UniProt P13726); assay: SPR; Fab captured by anti-His, TF as analyte; LCCA set 10549 (identifier in reverse orientation, assigned by Table 12)
[28] = molecular target: tissue factor (TF) antigen (UniProt P13726); assay: SPR; Fab captured by anti-His, TF as analyte; LCCA set 9104; estimated from the Fab differing only in L chain tag
[29] = molecular target: tissue factor (TF) antigen (UniProt P13726); assay: SPR; Fab captured by anti-His, TF as analyte; LCCA set 9116
[30] = molecular target: tissue factor (TF) antigen (UniProt P13726); assay: SPR; Fab captured by anti-His, TF as analyte; LCCA set 9347
[31] = molecular target: tissue factor (TF) antigen (UniProt P13726); assay: SPR; Fab captured by anti-His, TF as analyte; LCCA set 9375
[32] = molecular target: tissue factor (TF) antigen (UniProt P13726); assay: SPR; Fab captured by anti-His, TF as analyte; LCCA set 9374
[33] = molecular target: tissue factor (TF) antigen (UniProt P13726); assay: SPR; Fab captured by anti-His, TF as analyte; LCCA set 9813
[34] = molecular target: tissue factor (TF) antigen (UniProt P13726); assay: SPR; Fab captured by anti-His, TF as analyte; LCCA set 9814
[35] = molecular target: tissue factor (TF) antigen (UniProt P13726); assay: SPR; Fab captured by anti-His, TF as analyte; LCCA set 9824
[36] = molecular target: tissue factor (TF) antigen (UniProt P13726); assay: SPR, Fab captured by anti-His, TF as analyte; * estimated from Fab differing only in L chain tag
[37] = molecular target: tissue factor (TF) antigen (UniProt P13726); assay: SPR; reference wild-type D3H44 Fab; * estimated value
[38] = molecular target: D3H44 Fab heavy chain S186K, C-terminal ABD2-His6 tag; assay: LCCA: heavy chain co-expressed with two light chains, SPR detection of light chain tags; L1:L2 DNA 1:3, normalized to 1:1; competing light chain m11
[39] = molecular target: D3H44 Fab heavy chain Q179K, C-terminal ABD2-His6 tag; assay: as above
[40] = molecular target: D3H44 Fab heavy chain L143E_K145T_S188L, C-terminal ABD2-His6 tag; assay: as above
[41] = molecular target: D3H44 Fab heavy chain L143E_K145T, C-terminal ABD2-His6 tag; assay: as above

H1L1:H1L2 normalized median ratio [1]: 74% | H1L1:H1L2 normalized median scalar value ln(r1/f1) [1]: 1.03 | H1L1:H1L2 normalized median ratio [2]: 31% | H1L1:H1L2 normalized median ratio [3]: 16% | H1L1:H1L2 normalized median ratio [4]: 79% | H1L1:H1L2 normalized median scalar value ln(r1/f1) [4]: 1.32 | H1L1:H1L2 normalized median ratio [5]: 57% | H1L1:H1L2 normalized median scalar value ln(r1/f1) [5]: 0.28 | H1L1:H1L2 normalized median ratio [6]: 69% | H1L1:H1L2 normalized median scalar value ln(r1/f1) [6]: 0.81 | H1L1:H1L2 normalized median ratio [7]: 76% | H1L1:H1L2 normalized median scalar value ln(r1/f1) [7]: 4 | H1L1:H1L2 normalized median ratio [8]: 26% | H1L1:H1L2 normalized median ratio [9]: 43% | H1L1:H1L2 normalized median ratio [10]: 23% | H1L1:H1L2 normalized median ratio [11]: 84% | H1L1:H1L2 normalized median scalar value ln(r1/f1) [11]: 1.63 | H1L1:H1L2 normalized median ratio [12]: 21% | H1L1:H1L2 normalized median ratio [13]: 77% | H1L1:H1L2 normalized median scalar value ln(r1/f1) [13]: 1.22 | H1L1:H1L2 normalized median ratio [14]: 24%
Substance: D3H44 Fab heavy chain L143E_K145T_S188L, ABD2-His6 tagged

H2L2:H2L1 normalized median ratio [15]: 7% | H2L2:H2L1 normalized median ratio [1]: 5% | H2L2:H2L1 normalized median ratio [16]: 94% | H2L2:H2L1 normalized median ratio [17]: 93% | H2L2:H2L1 normalized median ratio [18]: 2% | H2L2:H2L1 normalized median ratio [19]: 6% | H2L2:H2L1 normalized median ratio [20]: 6% | H2L2:H2L1 normalized median ratio [21]: 98% | H2L2:H2L1 normalized median ratio [8]: 95% | H2L2:H2L1 normalized median ratio [22]: 94%
Substance: D3H44 Fab heavy chain Q179K, ABD2-His6 tagged

Change in KD with respect to wild type (-(log(KD design) - log(KD wt))) [23]: -0.12 | Kd [23]: 0.21 nM
Substance: D3H44 Fab heterodimer H L124E_L143E_K145T / L Q124K_V133G_S176R_T178K (H1L1 Fab of LCCA Set # 9298)

Change in KD with respect to wild type (-(log(KD design) - log(KD wt))) [24]: 0.04 | Kd [24]: 0.14 nM
Substance: D3H44 Fab heterodimer, H A139W_L143E_K145T_Q179E / L F116A_Q124R_L135V_T178R (H1L1 Fab of LCCA set 9060)

Change in KD with respect to wild type (-(log(KD design) - log(KD wt))) [25]: -0.35 | Kd [25]: 0.35 nM | Change in KD with respect to wild type (-(log(KD design) - log(KD wt))) [26]: -0.35 | Kd [26]: 0.35 nM | Change in KD with respect to wild type (-(log(KD design) - log(KD wt))) [27]: -0.35 | Kd [27]: 0.35 nM
Substance: D3H44 Fab heterodimer, H L45P_K145T_Q179E / L P44F_S131K (H1L1 Fab of LCCA sets 9746, 10549)

Change in KD with respect to wild type (-(log(KD design) - log(KD wt))) [28]: -0.01 | Kd [28]: 0.16 nM
Substance: D3H44 Fab heterodimer, H L124E / L S131T_V133G_S176R_T178Y (H1L1 Fab of LCCA set 9104)

Change in KD with respect to wild type (-(log(KD design) - log(KD wt))) [29]: -0.02 | Kd [29]: 0.16 nM
Substance: D3H44 Fab heterodimer, H L124E_A139W / L F116A_V133G_L135V_S176R (H1L1 Fab of LCCA set 9116)

Change in KD with respect to wild type (-(log(KD design) - log(KD wt))) [30]: -0.16 | Kd [30]: 0.23 nM
Substance: D3H44 Fab heterodimer, H L124R_A125R_H172T / L V133G_N137K_S174R_S176D (H1L1 Fab of LCCA set 9347)

Change in KD with respect to wild type (-(log(KD design) - log(KD wt))) [31]: -0.16 | Kd [31]: 0.23 nM | Change in KD with respect to wild type (-(log(KD design) - log(KD wt))) [32]: -0.16 | Kd [32]: 0.23 nM
Substance: D3H44 Fab heterodimer, H L124R_H172T / L V133G_N137K_S174R_S176D (H1L1 Fab of LCCA sets 9374, 9375)

Change in KD with respect to wild type (-(log(KD design) - log(KD wt))) [33]: -0.05 | Kd [33]: 0.18 nM
Substance: D3H44 Fab heterodimer, H Q39E_K145T_H172R_Q179E / L Q38R_S131K (H1L1 Fab of LCCA set 9813)

Change in KD with respect to wild type (-(log(KD design) - log(KD wt))) [34]: -0.01 | Kd [34]: 0.16 nM
Substance: D3H44 Fab heterodimer, H Q39E_K145T_Q179E / L Q38R_S131K (H1L1 Fab of LCCA set 9814)

Change in KD with respect to wild type (-(log(KD design) - log(KD wt))) [35]: 0.03 | Kd [35]: 0.15 nM
Substance: D3H44 Fab heterodimer, H Q39R_H172R_S186R / L Q38E_Q124E_Q160E_T180E (H1L1 Fab of LCCA set 9824)

Kd [36]: 0.21 nM | Change in KD of h1|1 Fab heterodimer with respect to wild type (-(log(KD design) - log(KD wt))) [37]: -0.12
Substance: D3H44 Fab heterodimer, heavy L124E_L143E_K145T / light Q124K_V133G_S176R_T178K

Kd [36]: 0.18 nM | Change in KD of h1|1 Fab heterodimer with respect to wild type (-(log(KD design) - log(KD wt))) [37]: -0.07
Substance: D3H44 Fab heterodimer, heavy L124E_L143E_K145T / light Q124K_V133G_S176R_T178R

H2L2:H2L1 normalized median ratio [38]: 97% | H2L2:H2L1 normalized median ratio [39]: 97% | H1L1:H1L2 normalized median ratio [40]: 43%
Substance: D3H44 light chain Q124E_S176L_T180E, N-terminal HA or FLAG tag

H2L2:H2L1 normalized median ratio [39]: 98% | H1L1:H1L2 normalized median ratio [41]: 53%
Substance: D3H44 light chain S131E, N-terminal HA or FLAG tag
